Key:
Assay in all cases: cell-based or functional assay
[1] = target: HIV-1 SC422661.8 (Acute) Env on pseudovirus (HIV-1)
HIV-1 NL43 Env (HIV-1) = target: HIV-1 NL43 Env (HIV-1)
[2] = target: HIV-1 MGRM-F1-016 Env (HIV-1)
[3] = target: HIV-1 93TH305 Env on pseudovirus (HIV-1)
[4] = target: HIV-1 IAVI-C22 Env (HIV-1)
[5] = target: HIV-1 MGRM-AG-008 Env (HIV-1)
[6] = target: HIV-1 MGRM-C-024 Env on pseudovirus (HIV-1)
[7] = target: HIV-1 MGRM-F1-021 Env (HIV-1)
[8] = target: HIV-1 MGRM-G-019 Env (HIV-1)
[9] = target: HIV-1 MGRM-Chronic-B-011 Env on pseudovirus (HIV-1)
[10] = target: HIV-1 MGRM-D-026 Env (HIV-1)
[11] = target: HIV-1 MGRM-Chronic-B-023 Env on pseudovirus (HIV-1)
[12] = target: HIV-1 MGRM-G-015 Env (HIV-1)
[13] = target: HIV-1 MGRM-F1-012 Env (HIV-1)
[14] = target: HIV-1 JRCSF Env on pseudovirus (HIV-1) (UniProt P20871)
[15] = target: HIV-1 MGRM-AE-001 Env (HIV-1)
[16] = target: HIV-1 MGRM-Chronic-B-010 Env on pseudovirus (HIV-1)
[17] = target: HIV-1 PVO.4 (Acute) Env on pseudovirus (HIV-1)
[18] = target: HIV-1 MGRM-AG-009 Env (HIV-1)
[19] = target: aMLV envelope (negative control pseudovirus)
[20] = target: HIV-1 MGRM-G-006 Env (HIV-1)
[21] = target: HIV-1 MGRM-F1-004 Env (HIV-1)
[22] = target: HIV-1 92UG024 Env (HIV-1)
[23] = target: HIV-1 98CN006 Env on pseudovirus (HIV-1)
[24] = target: HIV-1 93IN905 Env (HIV-1)
[25] = target: HIV-1 92RW020 Env (HIV-1)
[26] = target: HIV-1 TRO.11 (Acute) Env on pseudovirus (HIV-1)
[27] = target: HIV-1 LAVIC_18 Env on pseudovirus (HIV-1)
[28] = target: HIV-1 MGRM-AE-007 Env (HIV-1)
[29] = target: HIV-1 JRFL Env on pseudovirus (HIV-1)
[30] = target: HIV-1 93IN905 Env on pseudovirus (HIV-1)
[31] = target: HIV-1 MGRM-C-005 Env on pseudovirus (HIV-1)
[32] = target: HIV-1 MGRM-AE-002 Env (HIV-1)
[33] = target: HIV-1 MGRM-G-017 Env (HIV-1)
[34] = target: HIV-1 93UG077 Env (HIV-1)
[35] = target: HIV-1 MGRM-C-004 Env on pseudovirus (HIV-1)
[36] = target: HIV-1 MGRM-C-020 Env on pseudovirus (HIV-1)
HIV-1 APV-6 Env (HIV-1) = target: HIV-1 APV-6 Env (HIV-1)
[37] = target: HIV-1 MGRM-D-016 Env (HIV-1)
[38] = target: HIV-1 THR0.18 (Acute) Env on pseudovirus (HIV-1)
[39] = target: HIV-1 MGRM-F1-006 Env (HIV-1)
[40] = target: HIV-1 MGRM-C-017 Env on pseudovirus (HIV-1)
[41] = target: HIV-1 MGRM-Chronic-B-012 Env on pseudovirus (HIV-1)
[42] = target: HIV-1 MGRM-D-018 Env (HIV-1)
[43] = target: HIV-1 MGRM-AE-004 Env (HIV-1)
[44] = target: HIV-1 MGRM-Chronic-B-003 Env on pseudovirus (HIV-1)
[45] = target: HIV-1 MGRM-D-001 Env (HIV-1)
[46] = target: HIV-1 MGRM-AG-001 Env (HIV-1)
[47] = target: HIV-1 MGRM-G-001 Env (HIV-1)
[48] = target: HIV-1 MGRM-D-008 Env (HIV-1)
[49] = target: HIV-1 MGRM-C-007 Env on pseudovirus (HIV-1)

## 2G12 (antibody)
[1]
  IC50: 0.84 µg/mL
HIV-1 NL43 Env (HIV-1)
  neutralization IC50: 0.75 µg/mL
  neutralization IC90: 15.8 µg/mL
[2]
  IC50 (pseudovirus neutralization): > 50 µg/mL
[3]
  IC50: 0.55 µg/mL
[4]
  neutralization IC50: > 50 µg/mL
  neutralization IC90: > 50 µg/mL
[5]
  IC50 (µg/ml), pseudovirus neutralization: > 50 µg/mL
[6]
  IC50: > 50 µg/mL
[7]
  IC50 (pseudovirus neutralization): 14.1 µg/mL
[8]
  IC50 (µg/ml), pseudovirus neutralization: 31 µg/mL
[9]
  IC50: > 50 µg/mL
[10]
  IC50 (µg/ml), pseudovirus neutralization: > 50 µg/mL
[11]
  IC50: 0.16 µg/mL
[12]
  IC50 (µg/ml), pseudovirus neutralization: > 50 µg/mL
[13]
  IC50 (pseudovirus neutralization): 1.81 µg/mL
[14]
  IC50: 0.37 µg/mL
[15]
  IC50 (µg/ml), pseudovirus neutralization: > 50 µg/mL
[16]
  IC50: 1.5 µg/mL
[17]
  IC50: 0.8 µg/mL
[18]
  IC50 (µg/ml), pseudovirus neutralization: > 50 µg/mL
[19]
  IC50 (pseudovirus neutralization): > 50 µg/mL
[20]
  IC50 (µg/ml), pseudovirus neutralization: > 50 µg/mL
[21]
  IC50 (pseudovirus neutralization): > 50 µg/mL
[22]
  IC50 (µg/ml), pseudovirus neutralization: 0.42 µg/mL
  neutralization IC50: 0.59 µg/mL
  neutralization IC90: 7.57 µg/mL
[23]
  IC50: > 50 µg/mL
[24]
  neutralization IC50: > 50 µg/mL
  neutralization IC90: > 50 µg/mL
[25]
  neutralization IC50: 0.56 µg/mL
  neutralization IC90: 6.23 µg/mL
[26]
  IC50: 0.29 µg/mL
[27]
  IC50: > 50 µg/mL
[28]
  IC50 (µg/ml), pseudovirus neutralization: > 50 µg/mL
[29]
  IC50: 1.45 µg/mL
[30]
  IC50: > 50 µg/mL
[31]
  IC50: > 50 µg/mL
[32]
  IC50 (µg/ml), pseudovirus neutralization: > 50 µg/mL
[33]
  IC50 (µg/ml), pseudovirus neutralization: > 50 µg/mL
[34]
  neutralization IC50: > 50 µg/mL
  neutralization IC90: > 50 µg/mL
[35]
  IC50: > 50 µg/mL
[36]
  IC50: 18.6 µg/mL
HIV-1 APV-6 Env (HIV-1)
  neutralization IC50: 5.3 µg/mL
[37]
  IC50 (µg/ml), pseudovirus neutralization: > 50 µg/mL
[38]
  IC50: > 50 µg/mL
[39]
  IC50 (pseudovirus neutralization): > 50 µg/mL
[40]
  IC50: > 50 µg/mL
[41]
  IC50: 0.22 µg/mL
[42]
  IC50 (µg/ml), pseudovirus neutralization: 0.12 µg/mL
[43]
  IC50 (µg/ml), pseudovirus neutralization: > 50 µg/mL
[44]
  IC50: 0.06 µg/mL
[45]
  IC50 (µg/ml), pseudovirus neutralization: > 50 µg/mL
[46]
  IC50 (µg/ml), pseudovirus neutralization: 0.69 µg/mL
[47]
  IC50 (µg/ml), pseudovirus neutralization: > 50 µg/mL
[48]
  IC50 (µg/ml), pseudovirus neutralization: > 50 µg/mL
[49]
  IC50: > 50 µg/mL

## 4E10 (antibody)
[1]
  IC50: 6.35 µg/mL
HIV-1 NL43 Env (HIV-1)
  neutralization IC50: 4.95 µg/mL
  neutralization IC90: 29.6 µg/mL
[2]
  IC50 (pseudovirus neutralization): 7.61 µg/mL
[3]
  IC50: 12.3 µg/mL
[4]
  neutralization IC50: 1.02 µg/mL
  neutralization IC90: 16.4 µg/mL
[5]
  IC50 (µg/ml), pseudovirus neutralization: 1.48 µg/mL
[6]
  IC50: 22.6 µg/mL
[7]
  IC50 (pseudovirus neutralization): 1.87 µg/mL
[8]
  IC50 (µg/ml), pseudovirus neutralization: 6.53 µg/mL
[9]
  IC50: 1.07 µg/mL
[10]
  IC50 (µg/ml), pseudovirus neutralization: 2.95 µg/mL
[11]
  IC50: 27.9 µg/mL
[12]
  IC50 (µg/ml), pseudovirus neutralization: 1.07 µg/mL
[13]
  IC50 (pseudovirus neutralization): 0.37 µg/mL
[14]
  IC50: 3.3 µg/mL
[15]
  IC50 (µg/ml), pseudovirus neutralization: 0.85 µg/mL
[16]
  IC50: 1.69 µg/mL
[17]
  IC50: 18.3 µg/mL
[18]
  IC50 (µg/ml), pseudovirus neutralization: 31.4 µg/mL
[19]
  IC50 (pseudovirus neutralization): > 50 µg/mL
[20]
  IC50 (µg/ml), pseudovirus neutralization: 1.23 µg/mL
[21]
  IC50 (pseudovirus neutralization): 2.74 µg/mL
[22]
  IC50 (µg/ml), pseudovirus neutralization: 2.17 µg/mL
  neutralization IC50: 1.32 µg/mL
  neutralization IC90: 23.7 µg/mL
[23]
  IC50: 1.91 µg/mL
[24]
  neutralization IC50: 1.55 µg/mL
  neutralization IC90: 12.8 µg/mL
[25]
  neutralization IC50: 3.38 µg/mL
  neutralization IC90: 36.1 µg/mL
[26]
  IC50: 1.39 µg/mL
[27]
  IC50: > 50 µg/mL
[28]
  IC50 (µg/ml), pseudovirus neutralization: 0.45 µg/mL
[29]
  IC50: 18.9 µg/mL
[30]
  IC50: 1.26 µg/mL
[31]
  IC50: 16.4 µg/mL
[32]
  IC50 (µg/ml), pseudovirus neutralization: 0.55 µg/mL
[33]
  IC50 (µg/ml), pseudovirus neutralization: 1.14 µg/mL
[34]
  neutralization IC50: 11.2 µg/mL
  neutralization IC90: > 50 µg/mL
[35]
  IC50: 24.2 µg/mL
[36]
  IC50: 2.8 µg/mL
HIV-1 APV-6 Env (HIV-1)
  neutralization IC50: 0.4 µg/mL
[37]
  IC50 (µg/ml), pseudovirus neutralization: 15.4 µg/mL
[38]
  IC50: 4.68 µg/mL
[39]
  IC50 (pseudovirus neutralization): 1.01 µg/mL
[40]
  IC50: 1.47 µg/mL
[41]
  IC50: 48 µg/mL
[42]
  IC50 (µg/ml), pseudovirus neutralization: 3.9 µg/mL
[43]
  IC50 (µg/ml), pseudovirus neutralization: 1.27 µg/mL
[44]
  IC50: 3.5 µg/mL
[45]
  IC50 (µg/ml), pseudovirus neutralization: 1.84 µg/mL
[46]
  IC50 (µg/ml), pseudovirus neutralization: 1.12 µg/mL
[47]
  IC50 (µg/ml), pseudovirus neutralization: 2.04 µg/mL
[48]
  IC50 (µg/ml), pseudovirus neutralization: 42.9 µg/mL
[49]
  IC50: 5.84 µg/mL
